Results published in the supplement of paper PMC9170038.

Key:
Conditions in all cases: FMN input: 0 or 200 uM; Eterna round: R93 (includes R88 designs)
MS2 coat protein [1] = assay: apparent KD of MS2 coat protein, switch OFF state (with FMN for OFF switches, without FMN for ON switches); designed switch direction (-1 OFF switch, 1 ON switch): 1; higher = weaker reporter binding
Method in brief: (§1)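 Apparent KD per design is the median of normalised cluster binding-curve fits. Designed RNA switches transcribed on-chip from Illumina sequencing clusters were titrated with SNAP-549-labelled MS2 coat protein in twofold steps from 0.7 or 1.5 nM to 3 µM, with 0.8–1.5 h down to 10–20 min per step. Buffer: 100 mM Tris-HCl pH 7.5, 80 mM KCl, 4 mM MgCl2, without or with constant ligand.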

MS2 coat protein [2] = assay: apparent KD of MS2 coat protein, switch ON state; designed switch direction (-1 OFF switch, 1 ON switch): 1; higher = weaker reporter binding
Method in brief: as §1

MS2 coat protein [3] = assay: apparent KD of MS2 coat protein, switch OFF state (with FMN for OFF switches, without FMN for ON switches); designed switch direction (-1 OFF switch, 1 ON switch): -1; higher = weaker reporter binding
Method in brief: as §1

MS2 coat protein [4] = assay: apparent KD of MS2 coat protein, switch ON state; designed switch direction (-1 OFF switch, 1 ON switch): -1; higher = weaker reporter binding
Method in brief: as §1

Sequence	apparent KD of MS2 coat protein (MS2 coat protein [1]) [nM]	apparent KD of MS2 coat protein (MS2 coat protein [2]) [nM]	apparent KD of MS2 coat protein (MS2 coat protein [3]) [nM]	apparent KD of MS2 coat protein (MS2 coat protein [4]) [nM]
AGAAAACAUGAGGAUCACCCAUGUAGAAAUAUGGGAGGAUAUACGAGGACGAAAGUCAAAGUAGAAGGCCUAAAGA [Mat - Same State 1 - Meechl mod - D125]	71.2	21	–	–
AAAAAACAAAGAGAGGAUAUCCUAAAAAAAACAUGAGGAUCACCCAUGUAAAGAAAUUUAAAAUGGGAGAAGGCUCUUUGAAAAA [Same State 2.6d ( Helter Skelter 1)]	23.2	12.4	–	–
AAAAGACAUGAGGAUCACCCAUGUCCUCGGACAUGAGGAUAUGUACAGACUUCGGUCUGUACAGAAGGCAUGUAAA [SS1 - 1070]	232	47.3	–	–
AAAAUACAUGAGGAUCACCCAUGUCCGACAAAUCAAGGAUAUGAUAGCCUAACCAGGCUGUUAGAAGGUGAAAGAA [Laarera]	51.1	637	–	–
AAUACACAUGGUCAGGAUAUCGCAGCUAGGACAUGAGGAUCACCCAUGUAAUAAGUAAAAGUAAAUGAGAAGGGACAGGGUGACC [JR_SS002_Sub405]	206	520	–	–
GAAGACAUAGUUCAGGAUAUAUGAAUAGUCACAUGAGGAUCACCCAUGUGCAUUUAUAUGCGCACAUAGAAGGGAGGUAGUUAUC [SameState2 Malc#24]	23.5	33.6	–	–
AGGAAACAUGAGGAUCACCCAUGUGUAAAAAAUACAGGAUAUGGAAACACGAAAGUGAAACCAGAAGGGUAAAAAA [77%, Mat - Mod of Eli, 31]	19	13.4	–	–
AACAAUCUAUCUGAGGAUAUAUGUCAAAAGACAUGAGGAUCACCCAUGUAAAAACAUGAAAAGACAUAGAAGGCAGAUAGAUUGA [SS2: 1133]	35.1	25.4	–	–
AAAUAACAUGAGGAUCACCCAUGUUGCAACGGUACAGGAUAUGUGGGUGAAAAUAGCAUGGCAGAAGGGUAGUGUA [SameState1 Malc#29]	67.8	130	–	–
GAAAAACAUGAGGAUCACCCAUGUAGAAAUAUGGGAGGAUAUACAAACUCGAAAGACAAAGUAGAAGGCCUAAAAG [Garnet 24]	133	38.2	–	–
AAAAAACAUGAGGAUCACCCAUGUGAGAACAUGGGAGGAUAUACAAGGACGAGAGUCAAGGUAGAAGGCCUAAAGA [Mat - Same State 1 - Mod - D193]	21.1	545	–	–
AUAAAAUAAAGUCAGGAUAUCCAUAAUAAAACAUGAGGAUCACCCAUGUUAAAAAAAAGAUCAUGGGAGAAGGGACAAAAUAAAU [SS2 M 33]	57.6	28.6	–	–
GAAAAACAUGAGGAUCACCCAUGUAGAGAUAUGGGAGGAUAUACAAAGACGAAAGUCGAGGUAGAAGGCCUAAAAG [Garnet 55]	116	24.4	–	–
AAAAAAAAAUCACAGGAUAUACGAAAAAAAACAUGAGGAUCACCCAUGUGAAAAAAAAAAAAAAAGUAGAAGGGUGAUCCAAAAAA	8.77	12.6	–	–
GAUCCGACUAGUCAGGAUAUCAGGCGUAAGACAUGAGGAUCACCCAUGUCCUAAGAACAAGUAACUGAGAAGGGACAGGGCGACC [JR_SS002_Sub413]	62.4	62.3	–	–
UACACGCGGGCGCAGGAUAUGUCGCUGGUGACAUGAGGAUCACCCAUGUAUACCAUUGCGGUUGAGCAGAAGGGUGAGACGCGUG [Matimare]	57.5	15.1	–	–
GAAAAGUGAGGAUAUUCGGAUAGGAAAACGAAAACCUAUCCGAAGAAGGCACAUGAGGAUCACCCAUGUAAAAG [Mat - Exaclusion 4 - Eli mod - D36]	–	–	51.9	41.2
AAGAACACAGGAUAUACAUGAAAGAAAGAAAAGAAAAGAAAACAUGAGGAUCACCCAUGUAGAAGGGUGUAGAA [EteRNA is fun!]	–	–	532	454
AGUUAGCGAGGAUAUACAUGAGGAUCACCCAUGUGAGAGAAAAAAGUGAGAAAUAAAAGUAGAAGGCGCUAACA [Mat - Exclusion 3 - Eli mod - D69]	–	–	361	38.9
AAAAAGUGAGGAUAUACAGAUAAAAAAACGAAAAAAAAUCUGUAGAAGGCACAUGAGGAUCACCCAUGUAAAAA [Ex 4 May 3]	–	–	39	43.4
AAAUGACUAGGAUAUACAUGAGGAUCACCCAUGUGUAUAAAUAAAUACACAAAAGAAAGUAGAAGGAGUCAAAG [Mat - Exclusion 3 - Mayanna mod - D123]	–	–	60.5	20.6

Sequence	apparent KD of MS2 coat protein (MS2 coat protein [1]) [nM]	apparent KD of MS2 coat protein (MS2 coat protein [2]) [nM]	apparent KD of MS2 coat protein (MS2 coat protein [3]) [nM]	apparent KD of MS2 coat protein (MS2 coat protein [4]) [nM]
AAAAAGCGAGGAUAUACGAGUCAAAGAAAAGACAAAAGGGAACAUGAGGAUCACCCAUGUAGAAGGCGCAAAAA [Fiskers exclusion D2 62% 2]	–	–	100	30
AAGAACUGAGGAUAUACAAAAUAAAAGAAAAGAAAGAAAGAACAUGAGGAUCACCCAUGUAGAAGGCGGAAGAA [Wahibre Ibiau]	–	–	29.1	29.4
AAAAACGGAGGAUAUACAUGAGGAUCACCCAUGUAAAAAAAAAAAAAGGGAAAAAAAAGUAGAAGGCCGAAAAA [Sekhemrekhutawy Pantjeny]	–	–	71.2	39.1
AAAGGACGAGGAUAUACAUGAGGAUCACCCAUGUAAAAAACAUAGUAAAAGAACUUGUGUAGAAGGCGUCCAAA [Meechl Ex3 2 R2 v7]	–	–	181	159
GAAAAACAUGAGGAUCACCCAUGUAAGGAUAUGCUAAAAAACACGGAAAACGUGAAUAGCAGAAGGUACAAAAG [Mat - Exclusion 1 - Eli mod - D85]	–	–	46.8	25
AACAUGUGAGGAUAUUAAAGAAAAGAAAAGAAAGAAAAGAAUAAGAAGGCACAUGAGGAUCACCCAUGUAAGAA [EteRNA is fun!]	–	–	26.9	32.5
AGAAUACAUGAGGAUCACCCAUGUGAGGAUAUGCAAAUAAAAAUAAAAUAAAAUAAAUGCAGAAGGCACGAAAG [EX 1 May 22]	–	–	58.2	35.9
GAAAAACAUGAGGAUCACCCAUGUAAGGAUAUGCUGAAAAACACGGAAAAACGUGACAGCAGAAGGUACAAAAG [Mat - Exclusion 1 - Eli mod - D94]	–	–	40	18.3
GUGUACAGAGGAUAUAUAUGAGCUAGGAAACUAGCAACUUCACAUGAGGAUCACCCAUGUAGAAGGCUGUACAC [Ex2: 720]	–	–	14.3	14.1
AAAGAUGGAGGAUAUACAUGAGGAUCACCCAUGUGGAAAAUAAAUUGGGAAAAAGAAAGUAGAAGGCCAAAAAA [Ex 3 May 41]	–	–	94.7	45.5
AACUGACAUGAGGAUCACCCAUGUCAGGAUAUGCAUCUUAGGAAAAAAAAACUAAGAUGCAGAAGGGACAAGGG [Amethyst 48]	–	–	33.1	22.7
AGCUAGUCAGGAUAUACGAACACGUCAAAAGACGUGAAGGGACAUGAGGAUCACCCAUGUAGAAGGGACUAGCA [Mat - Exclusion 2 - JL mod - D24]	–	–	114	29.8
AUCAUGUAAGGAUAUUAAAGAAAAGAAAAGAAAGAAAAGAAUAAGAAGGUACAUGAGGAUCACCCAUGUAAGAA [EteRNA is fun!]	–	–	17	27
AAAAAGCGAGGAUAUACAUGAGGAUCACCCAUGUGAGAGAAAAAAAGGAGAAAAAAAAGUAGAAGGCGCAAAAA [Abraham Harold Maslow]	–	–	68.3	63.8
AAAGGACGAGGAUAUACAUGAGGAUCACCCAUGUAAAAAACAUAAUAAAAGAACUUAUGUAGAAGGCGUCCAAA [Meechl Ex3 2 R1 - Copy of Meechl Ex3 2 from Round 1]	–	–	318	53.8
AAGAAGUGAGGAUAUGGAAAAGAAAAGAAAAGAAAAGAAAACCAGAAGGCACAUGAGGAUCACCCAUGUAAGAA [Artabanus the Hyrcanian]	–	–	28	29.5
AAGAAACAUGAGGAUCACCCAUGUGAGGAUAUGUAAAAGAAAAGAAAAGAAAGAAGAAACAGAAGGCACAAAGG [Neferkare VII]	–	–	48	43.1
AACUGACAUGAGGAUCACCCAUGUCAGGAUAUGACUUGAAAAAAAAAAAAAAAACAUGUCAGAAGGGACAUGGG [Design 55 :P Sub-opt HB]	–	–	17.9	26.8
AAAACGUCAGGAUAUACAGAAGAGAUCACGAAAAAAAAAAAACAUGAGGAUCACCCAUGUAGAAGGGACAAAAA [Ex2 Malc#3]	–	–	136	117
AAGAAGUCAGGAUAUGCAAAAGAAAAGAAAAGAAAAGAAAAGCAGAAGGGACAUGAGGAUCACCCAUGUAAGAA [Metsuire Cambyses]	–	–	40.1	32.7
CAAAACAGAGGAUAUACAUGAGGAUCACCCAUGUAAAAAUGUAGAAGGCUGAAACAAACAAGAAGGAAACAAAA [Meechl Ex3 R2 m3]	–	–	30.1	23.7
